Assay results as given in patent US20100075897A1, “METHOD FOR S[…] BIOACTIVE PEPTIDES AND APPLICATION THEREOF” (JINAN UNIVERSITY, priority 2008, published 2010).
Substitutions are numbered along the chain they refer to. Where two headings read alike, the source gives them in different places. Ends that are not written are not given here.

What was measured:
GLP-1 receptor [1] = settings: CHO/GLP-1R, competition with 125I-GLP-1; fusion polypeptides after treatment with thrombin and DPP IV; read-out: Receptor binding affinity IC50
Procedure: (§1) The actual experimental steps were extracted from method as described by Montrose-Rafizadeh with proper modification as following:
(§2) (2) After cultured, removing supernatant, washing cells with cold PBS for three times, and then mixing with 0.5 mL 0.5 mol/L NaOH and 0.1% (mg/mL) SDS for 10 minutes. Irradiation of the cell lysis was determined by Apec-Series […] (ICN Biomedicals, Inc., Costa Mesa, Calif.).

GLP-1 receptor [2] = type: cell-based; settings: CHO/GLP-1R, 30 minutes; GLP-1 released from ABP-LK-GLP; read-out: cAMP production EC50
Procedure: Samples were rotated and then centrifuged for 5 minutes (2000 g, 4° C.) to acquire precipitation. Supernatant was removed by vacuum and then the precipitation was dissolved into 300 μL of […] Tris buffer (pH7.5, containing […] EDTA), added with sodium bicarbonate (0.15 mg/mL) and zinc sulfate (0.15 mg/mL), followed by being placed on ice for 15 minutes. Centrifugation was performed at 2000 g at 4° C. for […] to remove precipitation and obtain a supernatant. The supernatant was analyzed with [^3H] cAMP competition assay kit (Amersham Biotech, QC).

human serum albumin [3] = target: T1, human serum albumin (human, UniProt P02768 25-609); test: phage ELISA on plate-coated HSA, Table 3 absorbance (sample minus blank), dilution column 2 of 12
T1 construct: Bought protein; coated on plates (ELISA) or coupled to a CM5 chip (SPR); also called HSA; human albumin
T1 sequence (P02768 25-609 limits assumed): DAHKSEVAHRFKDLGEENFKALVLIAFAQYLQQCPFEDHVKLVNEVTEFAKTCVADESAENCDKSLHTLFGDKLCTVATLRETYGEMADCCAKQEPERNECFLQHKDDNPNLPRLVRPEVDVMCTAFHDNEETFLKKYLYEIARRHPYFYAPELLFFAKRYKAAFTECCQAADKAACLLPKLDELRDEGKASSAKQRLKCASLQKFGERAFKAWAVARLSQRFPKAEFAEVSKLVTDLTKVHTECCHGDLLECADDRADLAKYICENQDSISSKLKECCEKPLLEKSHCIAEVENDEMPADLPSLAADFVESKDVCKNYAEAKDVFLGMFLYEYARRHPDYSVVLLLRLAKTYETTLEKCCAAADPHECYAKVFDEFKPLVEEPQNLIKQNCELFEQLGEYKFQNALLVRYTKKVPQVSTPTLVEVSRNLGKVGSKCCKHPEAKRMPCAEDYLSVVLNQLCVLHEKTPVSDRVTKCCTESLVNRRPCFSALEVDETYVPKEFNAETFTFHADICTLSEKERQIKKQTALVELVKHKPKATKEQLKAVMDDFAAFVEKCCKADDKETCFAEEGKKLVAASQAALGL

human serum albumin [4] = target: T1, human serum albumin; test: phage ELISA on plate-coated HSA, sample row, dilution column 1 of 12
GLP-1 receptor [5] = target: T2, GLP-1 receptor; test: competition with 125I-GLP-1 on CHO/GLP-1R cells; polypeptide digested with thrombin and DPP IV first
T2 chain: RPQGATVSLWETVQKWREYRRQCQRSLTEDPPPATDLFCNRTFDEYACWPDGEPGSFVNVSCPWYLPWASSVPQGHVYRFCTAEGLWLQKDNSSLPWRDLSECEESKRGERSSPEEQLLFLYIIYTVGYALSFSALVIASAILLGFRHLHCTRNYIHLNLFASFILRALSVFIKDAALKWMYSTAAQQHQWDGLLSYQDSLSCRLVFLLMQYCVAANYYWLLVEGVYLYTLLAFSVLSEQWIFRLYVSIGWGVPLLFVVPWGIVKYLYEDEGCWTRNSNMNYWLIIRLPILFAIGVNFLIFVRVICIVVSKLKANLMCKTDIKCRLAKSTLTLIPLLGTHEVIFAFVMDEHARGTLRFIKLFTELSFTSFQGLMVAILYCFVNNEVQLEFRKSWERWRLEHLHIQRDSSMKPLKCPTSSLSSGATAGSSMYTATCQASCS
Procedure: as §1, §2

GLP-1 receptor [6] = target: T2, GLP-1 receptor; test: cell-based or functional assay
human serum albumin [7] = target: T1, human serum albumin; test: phage ELISA on plate-coated HSA, sample row, dilution column 2 of 12
human serum albumin [8] = target: T1, human serum albumin; test: phage ELISA on plate-coated HSA, Table 3 absorbance (sample minus blank), dilution column 1 of 12
human serum albumin [9] = target: T1, human serum albumin; test: phage ELISA on plate-coated HSA, Table 3 absorbance (sample minus blank), dilution column 3 of 12
human serum albumin [10] = target: T1, human serum albumin; test: phage ELISA on plate-coated HSA, Table 3 absorbance (sample minus blank), dilution column 6 of 12
GLP-1 receptor [11] = target: T2, GLP-1 receptor; test: competition with 125I-GLP-1 on CHO/GLP-1R cells
human serum albumin [12] = target: T1, human serum albumin; test: phage ELISA on plate-coated HSA, Table 3 absorbance (sample minus blank), dilution column 7 of 12

Molecule: PLPHSHRAHSLPPFNPRGP HAEGTFTSDVSSYLEGQAAKEFIAWLVKGRG [DP6.2]
- IC50 (GLP-1 receptor [1]): 2.1 ± 0.8 nM
- EC50 (GLP-1 receptor [2]): 23 ± 2.1 nM

Molecule: PNICLPRWGCLWDFNPRGA HAEGTFTSDVSSYLEGQAAKEFIAWLVKGRG [DP4.1]
- IC50 (GLP-1 receptor [1]): 2.5 ± 0.8 nM
- EC50 (GLP-1 receptor [2]): 19 ± 2.1 nM

Molecule: PSSLLHWTHKIPALFNPRGS HAEGTFTSDVSSYLEGQAAKEFIAWLVKGRG [DP8.3]
- IC50 (GLP-1 receptor [1]): 2.5 ± 0.6 nM
- EC50 (GLP-1 receptor [2]): 23 ± 2.2 nM

Molecule: LPHSHRAHSLPPFNPRPP HAEGTFTSDVSSYLEGQAAKEFIAWLVKGRG [PP6.2]
- IC50 (GLP-1 receptor [1]): 2.3 ± 0.8 nM
- EC50 (GLP-1 receptor [2]): 21 ± 2.1 nM

Molecule: LPHSHRAHSLPPFNPRPA HAEGTFTSDVSSYLEGQAAKEFIAWLVKGRG [PA6.2]
- IC50 (GLP-1 receptor [1]): 2.2 ± 0.7 nM
- EC50 (GLP-1 receptor [2]): 23 ± 2.4 nM

Molecule: PDICLPRWGCLWEFNPRGA HAEGTFTSDVSSYLEGQAAKEFIAWLVKGRG [DP3.1]
- IC50 (GLP-1 receptor [1]): 2.1 ± 0.5 nM
- EC50 (GLP-1 receptor [2]): 23 ± 2 nM

B1: Phage ID NO. 4 (M13 phage displaying the peptide of SEQ ID NO. 4, NICLPRWGCLWD) (peptide)
peptide: NICLPRWGCLWD
modifications: not fully specified (bridges); cysteine pairing not given here; also: displayed on M13 phage coat protein
notes: Tested as whole phage particles, not as free peptide; not shown: not described
- absorbance at 405 nm (human serum albumin [3]): 0.04
- absorbance at 405 nm (human serum albumin [4]): 0.08

B2: M6.1 fusion polypeptide (peptide)
peptide: LPHSHRAHSLPPFNPRGAHAEGTFTSDVSSYLEGQAAKEFIAWLVKGRG
notes: ABP-LK-GLP fusion polypeptide; also called ABP-LK-GLP
- IC50 (GLP-1 receptor [5]): 2.2 nM
- cAMP production EC50 (GLP-1 receptor [6]): 24 nM

B3: PP6.2 fusion polypeptide (peptide)
peptide: B2 peptide with G17P, A18P
notes: as for B2
- IC50 (GLP-1 receptor [5]): 2.3 nM
- cAMP production EC50 (GLP-1 receptor [6]): 21 nM

B4: M6.2 fusion polypeptide (peptide)
peptide: B2 peptide with A18P
notes: as for B2
- IC50 (GLP-1 receptor [5]): 2.3 nM
- cAMP production EC50 (GLP-1 receptor [6]): 21 nM

B5: PA6.2 fusion polypeptide (peptide)
peptide: B2 peptide with G17P
notes: as for B2
- IC50 (GLP-1 receptor [5]): 2.2 nM
- cAMP production EC50 (GLP-1 receptor [6]): 23 nM

B6: Phage ID NO. 1 (M13 phage displaying the peptide of SEQ ID NO. 1, NVCLPKWGCLWE) (peptide)
peptide: NVCLPKWGCLWE
modifications: not fully specified (bridges); cysteine pairing not given here; also: displayed on M13 phage coat protein
notes: as for B1
- absorbance at 405 nm (human serum albumin [7]): 0.09
- absorbance at 405 nm (human serum albumin [8]): 0.04

B7: DP8.3 fusion polypeptide (peptide)
peptide: PSSLLHWTHKIPALFNPRGSHAEGTFTSDVSSYLEGQAAKEFIAWLVKGRG
notes: ABP-LK-GLP fusion polypeptide, copied as printed with PSS at the N-terminus (DP8.1 and DP8.2 have PS); also called ABP-LK-GLP
- IC50 (GLP-1 receptor [5]): 2.5 nM
- cAMP production EC50 (GLP-1 receptor [6]): 23 nM

B8: DP8.1 fusion polypeptide (peptide)
peptide: PSLLHWTHKIPALFNPRGAHAEGTFTSDVSSYLEGQAAKEFIAWLVKGRG
notes: as for B2
- IC50 (GLP-1 receptor [5]): 2.2 nM
- cAMP production EC50 (GLP-1 receptor [6]): 24 nM

B9: DP8.2 fusion polypeptide (peptide)
peptide: B8 peptide with A19P
notes: as for B2
- IC50 (GLP-1 receptor [5]): 1.9 nM
- cAMP production EC50 (GLP-1 receptor [6]): 22 nM

B10: DP6.1 fusion polypeptide (peptide)
peptide: PLPHSHRAHSLPPFNPRGAHAEGTFTSDVSSYLEGQAAKEFIAWLVKGRG
notes: as for B2
- IC50 (GLP-1 receptor [5]): 2 nM
- cAMP production EC50 (GLP-1 receptor [6]): 23 nM

B11: DP6.2 fusion polypeptide (peptide)
peptide: B10 peptide with A19P
notes: as for B2
- IC50 (GLP-1 receptor [5]): 2.1 nM
- cAMP production EC50 (GLP-1 receptor [6]): 23 nM

B12: Phage ID NO. 2 (M13 phage displaying the peptide of SEQ ID NO. 2, DVCLPQWGCLWG) (peptide)
peptide: DVCLPQWGCLWG
modifications: not fully specified (bridges); cysteine pairing not given here; also: displayed on M13 phage coat protein
notes: as for B1
- absorbance at 405 nm (human serum albumin [9]): 0.04

B13: Phage ID NO. 5 (M13 phage displaying the peptide of SEQ ID NO. 5, LPWHLKYREPPR) (peptide)
peptide: LPWHLKYREPPR
modifications: also: displayed on M13 phage coat protein
notes: as for B1
- absorbance at 405 nm (human serum albumin [10]): 0.08

B14: Phage ID NO. 6 (M13 phage displaying the peptide of SEQ ID NO. 6, LPHSHRAHSLPP) (peptide)
peptide: LPHSHRAHSLPP
modifications: also: displayed on M13 phage coat protein
notes: as for B1
- absorbance at 405 nm (human serum albumin [7]): 0.09
- absorbance at 405 nm (human serum albumin [9]): 0.05

B15: M3.1 fusion polypeptide (peptide)
peptide: DICLPRWGCLWEFNPRGAHAEGTFTSDVSSYLEGQAAKEFIAWLVKGRG
notes: as for B2
- IC50 (GLP-1 receptor [5]): 2.2 nM
- cAMP production EC50 (GLP-1 receptor [6]): 22 nM

B16: M3.2 fusion polypeptide (peptide)
peptide: B15 peptide with A18P
notes: as for B2
- IC50 (GLP-1 receptor [5]): 2.1 nM
- cAMP production EC50 (GLP-1 receptor [6]): 21 nM

B17: M4.2 fusion polypeptide (peptide)
peptide: B15 peptide with D1N, E12D, A18P
notes: as for B2
- IC50 (GLP-1 receptor [5]): 2.2 nM
- cAMP production EC50 (GLP-1 receptor [6]): 21 nM

B18: M4.3 fusion polypeptide (peptide)
peptide: B15 peptide with D1N, E12D, A18S
notes: as for B2
- IC50 (GLP-1 receptor [5]): 2.2 nM
- cAMP production EC50 (GLP-1 receptor [6]): 19 nM

Molecule: FNPRHAEGTFTSDVSSYLEGQAAKEFIAWLVKGRG (GLP-1(7-37) with N-terminal FNPR) [FN-GLP]
- IC50 (GLP-1 receptor [11]): 450 nM
- cAMP production EC50 (GLP-1 receptor [6]): > 1000 nM

Molecule: LVPRHAEGTFTSDVSSYLEGQAAKEFIAWLVKGRG (GLP-1(7-37) with N-terminal LVPR) [LV-GLP]
- IC50 (GLP-1 receptor [11]): 467 nM
- cAMP production EC50 (GLP-1 receptor [6]): > 1000 nM

B19: M8.1 fusion polypeptide (peptide)
peptide: SLLHWTHKIPALFNPRGAHAEGTFTSDVSSYLEGQAAKEFIAWLVKGRG
notes: as for B2
- IC50 (GLP-1 receptor [5]): 2.2 nM
- cAMP production EC50 (GLP-1 receptor [6]): 24 nM

B20: M8.3 fusion polypeptide (peptide)
peptide: B19 peptide with A18S
notes: as for B2
- IC50 (GLP-1 receptor [5]): 2.2 nM
- cAMP production EC50 (GLP-1 receptor [6]): 21 nM

B21: M8.2 fusion polypeptide (peptide)
peptide: B19 peptide with A18P
notes: as for B2
- IC50 (GLP-1 receptor [5]): 1.9 nM
- cAMP production EC50 (GLP-1 receptor [6]): 21 nM

B22: DP4.3 fusion polypeptide (peptide)
peptide: PNICLPRWGCLWDFNPRGSHAEGTFTSDVSSYLEGQAAKEFIAWLVKGRG
notes: as for B2
- IC50 (GLP-1 receptor [5]): 2.1 nM
- cAMP production EC50 (GLP-1 receptor [6]): 18 nM

B23: DP3.2 fusion polypeptide (peptide)
peptide: B22 peptide with N2D, D13E, S19P
notes: as for B2
- IC50 (GLP-1 receptor [5]): 2.3 nM
- cAMP production EC50 (GLP-1 receptor [6]): 19 nM

B24: DP3.3 fusion polypeptide (peptide)
peptide: B22 peptide with N2D, D13E
notes: as for B2
- IC50 (GLP-1 receptor [5]): 2.3 nM
- cAMP production EC50 (GLP-1 receptor [6]): 21 nM

B25: DP4.1 fusion polypeptide (peptide)
peptide: B22 peptide with S19A
notes: as for B2
- IC50 (GLP-1 receptor [5]): 2.5 nM
- cAMP production EC50 (GLP-1 receptor [6]): 19 nM

B26: DP3.1 fusion polypeptide (peptide)
peptide: B22 peptide with N2D, D13E, S19A
notes: as for B2
- IC50 (GLP-1 receptor [5]): 2.1 nM
- cAMP production EC50 (GLP-1 receptor [6]): 23 nM

B27: Phage ID NO. 7 (M13 phage displaying the peptide of SEQ ID NO. 7, SLFRHQHATPQI) (peptide)
peptide: SLFRHQHATPQI
modifications: also: displayed on M13 phage coat protein
notes: as for B1
- absorbance at 405 nm (human serum albumin [7]): 0.08
- absorbance at 405 nm (human serum albumin [12]): 0.1
- absorbance at 405 nm (human serum albumin [4]): 0.08
